In US7667100B2, “Nucleic acid compositions conferring herbicide resistance” (Dow AgroSciences LLC, priority 2002, dated 2010):

Columns and labels:
[1] = system: Nicotiana benthamiana; experiment: Evaluation of auxin tolerance in greenhouse plants inoculated with clone transcript and sprayed with herbicide; type: in vivo; settings: greenhouse; 30% or more of test population tolerant by 14 dat
Method: All primary hit sequences were evaluated for tolerance in larger plants, maintained under greenhouse conditions as described below.
Plant Growth and Maintenance. Nb seeds were sown in 6.5 cm pots filled with Redi-earth medium (The Scotts Company, Marysville, Ohio) pre-wetted by injection of Hoagland's fertilizer solution [all from the Scotts Company: 147 kg Peters Excel 15-15-15 Cal-Mag, 68 kg Peters Excel 15-0-0 Cal-Lite (15% Ca), and 45 kg Peters Excel 10-0-0 MagNitrate (10% Mg) in hot tap water to 596 L total volume] into irrigation water at a ratio of 200:1, using an injection system (H. E. Anderson, Muskogee Okla,). Seededpots were placed in the greenhouse for 1 day, transferred to a 27° C. germination chamber (Carolina Greenhouses, Kinston, N.C.) for 2 days, and then returned to the greenhouse. Shade curtains (33% transmittance) were used in the greenhouse to reduce solar intensity. To ensure 16 hour day length and supplement solar radiation on overcast days, artificial lighting consisting of a 1:1 mixture of metal halide and high pressure Sylvania sodium lamps was used, delivering approximately 220 μmol/m^2/s. Evaporative cooling and steam heat were used to maintain a daytime set point of 27° C. and a nighttime temperature of 22° C. At approximately 7 days post sowing (dps), seedlings were thinned to one seedling per pot and at 17 to 21 dps, the pots were spaced farther apart to accommodate plant growth. Plants were watered with Hoagland's solution as required. Following inoculation, waste irrigation water was collected and treated with 0.5% sodium hypochlorite for 10 minutes to neutralize any viral contamination before discharging into the municipal sewer.
Plant Inoculation. For each clone, 50 test plants as well as 10 GFP and bar (Thompson et al., EMBO J. 6:2519 [19870]) negative control plants were inoculated as follows: 2.0 mL of inoculum per clone were prepared by combining equal volumes of NCAP transcript and FES buffer [0.1 M glycine, 0.06 M K2HPO4, 1% sodium pyrophosphate, 1% diatomaceous earth (Sigma Chemical Company, St. Louis, Mo.), and either 1% silicon carbide (Aldrich Chemical Company, Milwaukee, Wis.), or 1% Bentonite (Sigma Chemical Company, St. Louis, Mo.)]. The inoculum was applied to each plant at 17 days post sowing by pipetting onto the upper surface of leaves 3 and 4 (˜20 μL per leaf). The inoculum was then spread across each leaf surface using a 3″ cotton tipped applicator (Calapro Swab, Fisher Scientific, Pittsburgh, Pa.) and a gloved finger to support the leaf. Following inoculation the plants were misted with deionized water.
Infection Scoring. At 8 days post inoculation (dpi), the plants were visually examined and a numerical score was assigned to each plant to indicate the extent of viral infection symptoms: 0=no infection, 1=possible infection, 2=infection symptoms limited to leaves <50-75% fully expanded, 3=typical systemic infection, 4=atypically severe infection, often accompanied by moderate to severe wilting and/or necrosis. Plants receiving an infection rating of 0, 1, or 4 were discarded.
Herbicide spraying. At 9 dpi, the well infected plants (infection score of 3, sometimes 2) were divided into 3 treatment groups. Group 1, to be sprayed with solvent only, contained 4 plants per test clone (2 plants per negative control) and Groups 2 and 3, to be treated with 13 or 40 g ae/ha, respectively, each consisted of 12 test plants per clone and 2 plants per negative control. […]

[2] = system: Nicotiana benthamiana; experiment: Cross-resistance testing against six auxin compounds (greenhouse); type: in vivo
From the text: Six compounds, representing five classes of auxin chemistry, were selected for testing the extent of auxinic tolerance of five hit sequences (129965 (SEQ ID NO:10), 130213 (SEQ ID NO: 14), 130294 (SEQ ID NO:360), 130994 (SEQ ID NO:361), and 129870 (SEQ ID NO:359)). The compounds included the following: • 1) quinclorac (BASF Corp., Research Triangle, N.C.) • 2) (2,4-dichlorophenoxy) acetic acid (Dow AgroSciences, Indianapolis, Ind.) • 3) dicamba (Monsanto, St. Louis, Mo.) • 4) benazolin (AgrEvo USA Company, Wilmington, Del.) • 5) picloram (Dow AgroSciences, Indianapolis, Ind.) • 6) 4-amino-3,6-dichloropyridine-2-carboxylic acid (Dow AgroSciences, Indianapolis, Ind.) Compound #6 served as a positive control, as these five sequences were identified for their herbicide tolerant function using this auxin (see Example 9). Compound #1 represents the quinoline carboxylic acid chemical family, #2 is in the phenoxy carboxylic acid class, #3 is benzoic acid chemistry, #4 is unique to any currently defined class, and #5 is in the same family as the positive control, pyridine carboxylic acids.
The protocol was essentially the same as that described in Example 9 for greenhouse evaluations. However, an individual experiment consisted of 200 test plants plus 35 GFP and 35 bar negative control plants inoculated per clone. […] Two doses per auxin were tested, with as many as 12 well-infected test plants and 2 of each of the negative controls per dose.
The six auxin solutions were prepared by dissolving solid compound in General Purpose Solvent (GPS: 97%DMSO: 3% acetone) to achieve the following spray rates (g ae/ha) when using the spray applicator and parameters outlined in Example 9: Compound #1) 200; 2) 42; 3) 64; 4) 200; 5) 10; 6) 10. From each of these solutions, a portion was diluted with an equal volume of GPS, resulting in 1× (“high dose”) and ½× (“low dose”) concentrations for spraying. Before spray application, each auxin solution was mixed with an equal volume of diluent containing surfactants for effective penetration. The diluent was prepared as follows: 420 mL GPS, 460 mL DI water, 120 mL isopropyl alcohol, 10.167 mL Agri-Dex (Helena Chemical Co., Memphis, Tenn.), and 0.167 mL Triton X-155 (Sigma Chemical Co., St. Louis, Mo.). In addition to the 200 and 100 g ae/ha rates tested for Compound #4 (benazolin), a concentration of 250 g ae/ha was also formulated as described above and tested.
Plants were sprayed and evaluated as described in Example 9. FIG. 7 summarizes the sequences tested and the highest dose of the compounds against which tolerance was observed. […] Results are reported in FIG. 7 for each of the trials with each construct.
The positive control (Compound #6) was formulated differently in this set of evaluations from that described in Example 9, for consistency in the solvent/surfactant background from which to compare the activity of the individual sequences against each auxin. Thus, the spray rate used for evaluation was lower than previous experiments, 5 vs. 13 g ae/ha. The need to lower the dose with this formulation to prevent total chlorosis and/or necrosis was likely due to the addition of DMSO, Agri-Dex, and Triton X-155 which were not used in Example 9.

B1: 130994: Poppy cDNA clone; auxin tolerance hit sequence (nucleic acid)
DNA: GAATTCAATCAAATGGCTACTGCTAGAGTTTTAGCTGCTAGTATGTTGCATGAATGCAACAACACTCACAGTGCTTCATTTCTTTTGAGACAATCTTCTTTCATCTTACCTATTAAACATCAAAGTATTAATTTCAGTAGAAGAGCATCTTCTAGGAGAGCTTTTACTTGCAAATCTCTTTACAAACCTGAAATTCAAATCAAACAAGAAGGTGAACCTCAAACCCTAGATTACAGAGTCTTCTTTCATGATAAATCTGGCAAAAAGCTTTCACCTTGGCATGATGTACCATTGCAATTGGGTGATGGAGTGTTCAATTTTATCGTGGAAATACCAAAAGAGACAAGTGCAAAGATGGAAGTTGCAACTGATGAGCCATATACTCCCATTAAACAGGACACCAAGAAGGGAAAACTTAGATTCTACCCCTACAACATCAATTGGAACTATGGATTGCTCCCACAGACATGGGAAGACCCAACAGTAGCTAATTCTGAAGTTGAAGGGGCATTCGGAGATAATGATCCAGTTGATGTTGTTGAAATTGGGGAGAGGCAAGGAAAAATTGGCGAGATTCTTAAAGTCAAGCCTTTAGGTGCTTTGGCTATGATTGACGAAGGAGAACTCGACTGGAAAATTGTTGCGATTTCGTTGGATGACCCAAAAGCTTCACTCGTCAATGATGTTGGTGATGTTGAGAAACATTTCCCGGGCACTCTCACTGCTATAAGAGATTGGTTCAGAGACTACAAGATCCCAGATGGAAAGCCTGCCAATAAGTTTGGACTTGGGAACAAAGCAGCCAACAAGGATTATGCTCTGAAGGTAATAACTGAAACCAACGAAGCTTGGGCTAAACTTGTCAAGAGAACTGTTCCTGCTGGGGAGCTCTCCCTTCTGTAAATTTTGAATTTTTAAAAGTTGAAGATAAGAGGCACTTTGGCCCGCTCCTATCCCCCTCCTCTCTCTATTGTTTTCTTTCATGCTGGATTCCAAACAAACTTCCTCCAATTTTTTGGACGAAGTATTGATAATTTCTAATCATTGAGCTCCATTTTTCAAAAAAAAAAAA
modifications: Poppy
- reproducibility of auxin tolerance from Trial #1 to Trial #2 [1]: reproducible auxin tolerance
- tolerance to picloram (Compound #5) ([2]; 10 g ae/ha and 1/2x): demonstrated tolerance to each of the three compounds using the 35% injury threshold
- tolerance to positive control 4-amino-3,6-dichloropyridine-2-carboxylic acid (Compound #6) ([2]; 10 g ae/ha and 1/2x (5 g ae/ha)): tolerance consistently occurred at the lower threshold (25% injury or less)
- tolerance to dicamba (Compound #3) ([2]; 64 g ae/ha and 1/2x): demonstrated tolerance to each of the three compounds using the 35% injury threshold
- tolerance to quinclorac (Compound #1) ([2]; 200 g ae/ha and 1/2x): demonstrated tolerance to each of the three compounds using the 35% injury threshold
- extent of cross-resistance to the six auxin compounds ([2]; two trials, two doses per auxin, thresholds 25% or 35% injury or less): tolerance was observed against four compounds
